Data: doi:10.1101/2020.09.30.320564
Where a chain is given by its changes, count along the chain named.

How the values were obtained:
RRM domain = biological target: T1, RRM domain (human, UniProt Q9BRS8 183-298); assay: EMSA
T1 sequence: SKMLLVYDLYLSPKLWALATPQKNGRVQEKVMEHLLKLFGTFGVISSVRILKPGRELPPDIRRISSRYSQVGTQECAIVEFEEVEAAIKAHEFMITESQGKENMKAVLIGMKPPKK

La-module (La+RRM) [1] = biological target: T2, La-module (La+RRM) (human, UniProt Q9BRS8 81-298); assay: fluorescence polarization
T2 sequence: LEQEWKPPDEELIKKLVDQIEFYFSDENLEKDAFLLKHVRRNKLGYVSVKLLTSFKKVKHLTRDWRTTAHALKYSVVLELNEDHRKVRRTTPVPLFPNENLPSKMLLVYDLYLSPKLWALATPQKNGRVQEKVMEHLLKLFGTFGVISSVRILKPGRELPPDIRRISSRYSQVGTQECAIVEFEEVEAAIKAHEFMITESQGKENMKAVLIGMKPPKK

La-module K123A = biological target: T3, La-module K123A (human, UniProt Q9BRS8 81-298, K123A); assay: EMSA
T3 sequence: T2 sequence with K43A

La-module N122A = biological target: T4, La-module N122A (human, UniProt Q9BRS8 81-298, N122A); assay: EMSA
T4 sequence: T2 sequence with N42A

La-module R121A = biological target: T5, La-module R121A (human, UniProt Q9BRS8 81-298, R121A); assay: EMSA
T5 sequence: T2 sequence with R41A

La-module (La+RRM) [2] = biological target: T2, La-module (La+RRM); assay: EMSA
La-domain = La-domain (human, UniProt Q9BRS8 81-182); assay: EMSA

B1: α2(I) 5'SL (structured_RNA)
RNA: CACAAGGAGUCUGCAUGUCUAAGUGCUAGACAUGCUCAGCUUUGUG
B1: no binding (RRM domain); binds (La-module (La+RRM) [1]); binds (La-module K123A). B1: binds (La-module N122A); binds (La-module R121A).

B2: α1(I) 5'SL (structured_RNA)
RNA: CCACAAAGAGUCUACAUGUCUAGGGUCUAGACAUGUUCAGCUUUGUGG
B2: binds (La-module (La+RRM) [2]); binds (La-domain).
